Assay results reported in patent US20260274944A1.

Biological target: RAGE (the receptor of interest on CHO cell lines; human or mouse not told)
Experiment: cell-based or functional assay

B1: VHH 5-LNP (protein)
VHH: EVQLVESGGGLVQPGGSLRLSCAASGTIFSLNPMGWYRQAPGKQLELVALISDSGTANYADFVRGRFTISRDTTKKTLYLQMNSLEPEDTAVYYCRSTFAAGNFYWGQGTQVTVSS
modifications: here or on the partner: BCN (bicyclo[6.1.0]nonyne) selectively conjugated to the VHH and clicked to DOPE-PEG2000-N3 on the surface of a lipid nanoparticle loaded with luciferase mRNA
cellular delivery of FLuc mRNA (luminescence), fold against control LNP: 3 to 5 fold
